The values that follow come from the DeepSol protein solubility set.

The series in a line: soluble on expression in E. coli; label from the status in PepcDB or PDB records.
For “GPGSMLHIDFCIAADAQEALEESGKPNTATVAVPIILEKEVLKLLAPPVCSSDGGFEYDLNATRTLLGAKGATAAYIVVRTAPSTQYVVIYVSDTTSAKNRMLYSTGLSRVVEATPHAQKRTVRISSVSELLPSLFEAESKKVKEALMTESERHHAAIARMEVAPQPVALPGVAVQITTDADDGLSQFAGGAVEVATFKIEAGQLQLDKTVAQLNGNLDQVKSILTDADPRFVLLRYPSPKTQLAEAVMVYVCPPTCSPKIKIQYASSAAAFREQALRHKIQLAHKVETDTTATLADDVRSAFEPFPSADARKTHGRLSSCPPTSWAPKGHSMLI”, the “soluble on expression in E. coli” value was “soluble”. The value for “GPGSMLKFRLPYTHKKIGFGDSSRKVNSSLIGPDGTVNYLRGDILLPIWTRPTSTEGRLVVPRGAHRVPYKVAQVENCFFFFNARVREQVHFNHILLPDENLDHHYDAAAEVNCLLKYLQFLHPELREASAAVLRREVKHISTSITAHLRVNFQDVVRRREYLLLKQARSGQSEEEGDESDNEAVDADTAPNCGAQLGSSWETFAKEIIQAASKERARVVWRRNVEETGSDVRSGFWVTTIMRQ” was “not soluble”; that for “GPGSMLRLGQPTLTAMRCVPAASASATAVAPTTSYPSTSAALLANTRAIHGEVRHQNTDYDNTRIPWDFTTSSYEKIHNEILPKFPRGRRISATIPLLHLAQQQQGGYIPVTAMYKIAKICEVPPMHVFETVTFYSMFNRHPVGKYHIQFCRTTPCMLCGADELMERTMHYLNVRMHGTTSDGLITIGEMECLGACVNAPMLVVSDYSNPPNFSYDYMEDLTWESIKTLVENLRGGKPFKIGSQRLDRRYAEPAGGRTSLLFKEPPGPYCRDFDAEPDKKADAASPKK” was “not soluble”. Consider “GPGSMLRRLGSTLFCSVTLANGTVLKGDLNPHNPSLLLKGITILPDGRVYSGSYDATSGFPLPGSQLEEDGDLYRGDFNTQWQREGRGEAWLADGTHYAGVFKNDEITEGIVRIPNGTTEVVFEGTLSDEAFVKGKLTQSDFVYEGEFSDNEPHGKGKLVFATGAVQEGTFFHGKLHGPDCKMKLDGGFVYVGEFLDGQIRRGTLYTPTYTYEGEFNEHGRAQGEGTQTYLINEPRLTFTGIWTNGALVRGVCMDEYGSAVDWQNNDELQAKVLGGATGKGSESVGLNSYCSARMKEAAQLHSDMQRSYAEDAEAVAQSTGRFPTKMDLGYEGSIAHENEAVMQAQQRQMQDIERSKEVLSDRARDFGPIASGSRGNIIGEIDENMARIQFRRQVGAEEVSAARVDEQFERFMKSFKKPSPLPGAPAQVAQKLNIDGNAPWKAFTPLK”, for which the “soluble on expression in E. coli” value is listed as “soluble”. With “GPGSMLSQYLRKRVSVVTVDGRNLVGVLHAADQLLNIVLTSCVERTGAPYDFDDGAAEEDNGSVVDEGVSTAFSGGDTASGALPPLEEVHLGVMMLRGADVVSIAAIDVYEEAGTNVKDWRGRDMPPATAVARSW” the entry was “soluble”; with “GPGSMLYRTAVPVPADALVQRNLEFTRTAWKAGLRPDQRDANQLRVVEIDFPLLSRDVVQVKCGNTVATATISCDLVEPSPYRPKHGFFEVHARQLLNERDPLDQSKEIKRISMYLTRLLSGSVLETESLCVIPGRRVWSIDAEVIIVNNDGNAQDVAQWAVMTALQHVRRPELTIRGEDVIVHPPHERDPVPLPLHHIPLSFTFAVCANPQEVQLAVRAATLRSAHAPRAGASSGANADEGDGEAEELGWSSDALQVVVDPSLEEATAAACTVSVALNGEGHVCSLEKADGCYVSIAYLEQCMEIATKLTQALLSQMKESMEAHNAKRTEAVRSQFLWAQQRHGIQAIATPGDEGEHARKSAKTEK”, “soluble”. With “GPGSMNFVPLYRSILKGIHTAKQHPYHLQDIRFILSYPLVKPVYYATKPNSELKQLEPLQGIDTPLLVRTCLEDLRRAFMSVPSKDMSVAQQFVYMRELGWLKCRLENIASESTDAILKEARVVASEVTDDDFLDDQIIVRQGRPNNKELQCVQTGNNGSEMGDCGYGVASAGAIGLRYEMFILQNVAPLPLVKEFLSSFSQNTEAAAAAATSNQKLQEFARRYVPRTVVCQNEDLTLTITVNAFDAALTRKSTEENNPFARVHRYFMIRFDLSPSDPLVLGVDVVNSYFLRLDAGSAELVEDIGYLHAADVWKLSQELRVKGSGSSTDSDDTKDNGCVDGSVSSKEHAAEGNVNCMDHNEHEHNPTSHFELSFINPSDGPTIMKGQLYYTLRTKSSASASKMNVGVISFGHILLFNDE” the entry was “not soluble”. The value for “GPGSMPADKSYALKQVQTFGKKKTAIAVATVTKAAQCNIKVNGVPLQQILPDTLRAKIMEAITVVGSKYYSRLRIDVAVHGGGQVSQAYAARQAIAKGLIAFFQKYHNEVEKAALKDKFLAYDKFLLIADPRRCEPKKWGRHSARTRFTKSYR” was “soluble”; that for “GPGSMPPRRKSECLSSYAVDTTPSFQDEKFIEQLLHFVGANDEVSLLTMTAVALGAECYQVDLGQQIVVDARLDFINFCAKQGYCAAKVVHLLKWLCTFQERVEDGCNTQEMQEEVIAFVTSEVEEEWKWKRALQAEEALWEVQSSSKTSARRGHRAAEKVVEETEAVSTVPKENIYLQREDIGPFSTWLIQGIVQHASLYHYVATHARMVGEPEEFNYFLEVPVSAPPLRNALAPESVPQEPPLAKAQQDVEEQRASELETYKKEYEEAMALEQLRLQTIQNERDMKVFIENEGSMRAVEDTYESLQVDLSKRQRQILERITAAEKALGIFPFVQPQ” was “not soluble”; that for “GPGSMPQSAVMNVMVQAAMKAGRSLVRDYGEVQNLQVSLKGPADYVSQADRKAEKIIFNELSKARPKFGFLMEESEEIIGEDSQHRFIVDPLDGTTNFLHGIPFFAVSIALESQGKIVAGVIYNPINDELFTAERGSGAFFNDRRCRVSARRRLEDCVIATGMPHLGRPGHGTYLIELRNVMAEVSGIRRFGTAALDLAYVAAGRTDGFWEDNLQIWDMAAGILMVREAGGFVTDKEGGNDIFRKKNIIAGNEHIRIKLERALKKGI” was “soluble”. On to “GPGSMQAARLPTRIATGDGEDAPQTPPVHAPATPAATDEQETDQPQQAVGEATTPADRAGFQPPSAEALATRQSRNSAGAEKMGGGQRLRDHTTAQRRLMQDYRTFQKNMAEGTSSNITALPVDGDFFHWHAVISGPCDTPWEGGLFKLDLIFGDDYPFSPPKVRFRTKDVFHPNVYVDGNICMDTLKSSWQSSLNLEALLISIQSLLSDPNPLSAANGAAARLLTENRSAYDEKIRALVEESLEQSFSMDDDSDDAEVDEEAV”, for which the “soluble on expression in E. coli” value was “soluble”.

In the case of “GPGSMQPYGMSTSRTNRRPLVASRGGPNAPQRNYAMVTGPVDPSTSLIRYELPFSPADPKRSVKLRRRFGEPIEESVVDPNVRVVLDSFIPPRAWYDDDGVLWVQHASPKPASRTDTVETHEKLRRRLRETGAKRTGICPIRSLLLAECFLEVIRQVTVECWERGLVLLKIHAERVAAQTAHRELFESRVGYAFRLALKGEKDTSRVQQDLGKLKKRMEELAEEEKTLRQQCDEASARGEEEMLIVGKQHSDEVAAIKKEGILKRNQLEHMISMPSTP”, the “soluble on expression in E. coli” value is listed as “soluble”. The value for “GPGSMQSDFDNVETELRDIEETFTTGRMNAFGSASTQDAFVHELKRIAEIETQVFYRTCALLKSSHTNEHQLVTNMYASAQPPPQSQRSGPATTSPSSNLGDGSFRANSSGLESSMYRGPMNQRSQSSFASTVAGGLSGAPPSNSNIHSSSASRRQSRQGWENVSAGSPFPGVGDGGASSGAAPHIHRSEWGNEDGFADKAFEDVAAHFEELESQFFSLGDYLREISKHVIRLNDMSKQVNNGVNYGANGGVTGAPAAAANANGSSNNTDMLQTVGSMGRQDYPGSFIDPTSIGGGSGYGMDGPHS” was “soluble”. Regarding “GPGSMRGIARPTVATVGLSQQVVAFDEWVWALNELGGRESFRKNWRYYALRIDTVHFLMFVLDVLNGQALDEARQYLKEVTSHYHEVPLLVVFNNFREGHRRFDISEFEALIHLDKLRRRHGADVLSCVCDISVVHSKNRQLPRTLSSTLRTLSSLLKARSKSENGGDGGAPPVPKATTSFSASVVGGAAGDAAAGDGVVHS”, the “soluble on expression in E. coli” value is listed as “not soluble”. The value for “GPGSMRRFPPPPPTRTCAHERVKHAVPIPFRVTCFWPAMSAAPSEAFAEAETMEQLRLKGNACFADDPAEAAKYYTQAVQLYEERHGEDAACSLDEFTKSAGNALTCLFKMGETEQCAALAVRVLASNPILAKANAFYGRCALVDPSLDSVSTGFGTASAAALVHLCRAIYELPALEPNTRENIDEALTRLIGERVSVTETFARSPEAGVKLVRGQCGVGVEAIRTLPPLVEVVSLLTPFSVGAFEDFAGKGCCVECSKPIGLDVADAAAEEPNEDDGDEENDKDEGNVKATKEKPSTCTACNMVVYCSPACADAHREQHERFECARMTRLSDMMQGIEARKLDVPEQFFELAYHCITTLAGIKAKRAGHERVLTLTAHVDEVIQSLHPIGPLMCDLFKGEERPATLYTIIGVLCCNALELADPSGLGVAQALHAGNSIASFFNHSCTPNCAIDTVRHAIVTTRTIHVGEELSIAYIPQLYWPTRLRRERLSESYYFVCRCQRCESSNKDPFERALSMELPTARREATKHFHPIVQTTCATVRSRMVGDVSQKDADELSKLLRELSTHLFPFHYLCHEVRNCLSFVYAVLGQTRECLCSCLDELLMWECILPGALPVKRMKIENALQCVQGFGANVSDCSAALLPHLSRLALVYDAEGPI” was “not soluble”. With “GPGSMRTQTFPQQPRAPGMLPHLSNGAAAPAAPQVPAVQEHTDVVHDTQFDYYGLQLATASSDRTIGIHVARAGAPLNRVATLTGHEGPVWMVSWAHPRFGNLLASASYDQKAIIWKEIRQGAPKWTPVHVIDIHHGSVNAVQWAPEEYGPVVATASSDGTVAITAYRDGCWQPSVKLSNNSNQIAHAMGATSVTFAPFKSELADHVVVASGGCDGHVRLWVSASSPERGLGFELHQVIEAHADWVRDVAFCPTSPASRFVILASCGQDKTVVMYRKPWDQLCAETSEGVSQATEWERSVIEFAEPVWRLSWAPSGEMLVVTNAKSEVFVLREGVDFTEPWIKLPLKDFQQ” the entry was “not soluble”; with “GPGSMSALNDSRTTSGRPLPGGKPYALRPEGIPPSLCGDNVGASRGGDSIGDFKTAFEQPHSIDSEEEGDVEAASSPEQRLRRVQRDVYRHERQIASLFSEKHEHCEHLATVYKELEKVLRKIQLAPLEDLKGHAASPSASTFCAPSSDEDGYAASSTVSALASSLQQRFHQVLQQHQDRVYDVLVDYRQQINKSEYETGRRLCAIEEAIAQIQSDVRELQHTASIQVEELRHVQQDVRQRVEAVAVQQEAQRAALDATREARDTKAAKLLSKIQDDVAGLRADAKAARTQQIESAKDVEEQIRSLLSAQHRTEEALGAHSASIAQLQNQDSLEGAFHEVKDWLGDLEKRMVSRGELLQWTASLQSEIHQMRRVTGGVLSHTIEPTAPGQDA”, “soluble”. On to “GPGSMSANDVQNPPVEDDEVPTLEAADTQQASKPSKRYAKAMAKMGLKPEPNISKVHIRKRAALSFVVNQPEVYRFPGTNTFLIFGEAQLGDTTMQTQEAAARAVSGALVEEVGTAGEETSELAGETPAAAAPSESKQTPDDVEIVEGEFDDKEIAVVMAQGKTDRIGAIRALRNNKGDIVNAIMELTMDPN”, for which the “soluble on expression in E. coli” value is “not soluble”. The value for “GPGSMSASNSCTVEEVRKEYAKLLDPQEPLDSRMRELYRLKEDCLKTVAGVTVILEAIDTTDSVLLQHELAYNAGQSGREEAVPELERILRTTSYDVVTRHEAAEALGAIGSPLALQVLETHSAPTTEPEASIRETCELALARIAMKETKGDAAVAPPSGCEFVSVDPSPAFSALYSSTDEPVPLTVEELEAVLLDTSGRTRLFRRYMAMFTLRNLATEAAVAALCRGLREDTISALFRHEVAFVLGQLERPSSQPALIAALKDEEEAPMVRHEAAEALGAIADPATLPVLESYATHHEPIVRDSCVVALEMHKYWAHFNSLAHQQQEA” was “soluble”.
